Reference: paper PMC11962071 (Nature Communications, 2025)

B1: RDGC IQ (aa 1-25) I12E (domain or fragment)
chain: MDENAIRAAIFEQKWYRRHQARREM
B2: mPPEF2 IQ (aa 22-39) (peptide)
chain: AAALIQRWYRRYMARLEM

What was measured:
[1] = target: Drosophila melanogaster calmodulin (dCaM), recombinant (Drosophila melanogaster, UniProt P62152 1-149); test: ITC
[2] = target: Mus musculus calmodulin (mCaM), recombinant (Mus musculus, UniProt P0DP27 1-149); test: crystal structure

Binder | fold decrease in affinity against the wild type [1] [fold] | binding result [2]
B1 | 236 | 
B2 |  | binds
